{
  "source": "patent US10280200B2",
  "about": "“Non-natural consensus albumin binding domains” (Janssen Biotech, Inc., priority 2012, dated 2019)",
  "key": {"[1]": {"experiment": "Solubility after expression and purification from E. coli", "format": "physicochemical", "conditions": "expressed and purified from E. coli"}, "[2]": {"experiment": "Thermal stability by differential scanning calorimetry (DSC) in PBS", "format": "physicochemical", "procedure": "A second identical scan was completed on the sample in order to assess the reversibility of thermal folding/unfolding. Data was fit to a 2-state unfolding model in order to calculate the melting temperature.\nThe melting temperature of ABDCon12 was determined by differential scanning calorimetry using the procedures outlined in Example 2 above in order to investigate the mechanism of stabilization for this molecule."}, "[3]": {"experiment": "Stability on incubation in PBS at 37° C. for 28 days, SDS-PAGE and Mass Spectrometry", "format": "physicochemical", "conditions": "PBS pH 7.4, 37° C.", "procedure": "The FN3 domain-ABDCon fusion proteins were generated using standard cloning techniques. The amino acid sequence of one of the fusion proteins, Tencon-ABDCon is shown in SEQ ID NO: 41. Other FN3 domain-ABDCon fusion proteins made were Tencon25-ABDCon, 83-ABDCon and 71-ABDCon. These proteins were produced with c-terminal poly histidine tags and purified by a combination of nickel affinity and size exclusion chromatography using standard methods. Each purified molecule was incubated in PBS pH 7.4 at 37° C. for 28 days before analysis by SDS-PAGE and Mass Spectrometry.\nHowever one peptide sequence, TIDEWL (SEQ ID NO: 43), is present N-terminal to 5 of these protein domains. […] This protein was expressed with an N-terminal poly histidine tag and purified to homogeneity using standard methods for nickel affinity chromatography and size exclusion chromatography. Purified ABDCon12 was incubated at 37° C. in PBS for 28 days and stability assessed by SDS-PAGE and mass spectrometry."}, "human serum albumin": {"biological_target": "human serum albumin (Homo sapiens, UniProt P02768)", "experiment": "Kinetics of binding to immobilized human serum albumin, ProteOn XPR-36 surface plasmon resonance", "conditions": "read-out: KD (affinity) to human albumin, conditions specified herein", "procedure": "Human (SEQ ID NO: 36), Rhesus (SEQ ID NO: 37), and murine (SEQ ID NO: 38) serum albumins were purchased from Sigma (Catalogue # A4327 for human, #A3559 for murine, and #A4297 for rhesus) and resuspended in PBS at different concentrations. Each serum albumin was directly immobilized on a ligand channel in the vertical orientation of a GLC chip via standard amine coupling at 2.1 μg/mL at pH 5.0 to obtain surfaces with ligand densities of 500-1000 resonance units. […] The dissociation phases for all concentrations were monitored for two hours at a flow rate of 100 μL/min using PBST (PBS, 0.005% Tween20) as running buffer. A sixth sample (buffer only) was injected to monitor the baseline stability. The surfaces were regenerated using 1 short pulse (18 μL) of 0.8% phosphoric acid.\nThe raw response data were first processed by subtracting the buffer only responses and the non-specific binding between the analytes and the chip. Processed data of all five concentrations were globally fit to a 1:1 simple langmuir binding model for each ligand surface."}, "[4]": {"experiment": "Serum half-life / pharmacokinetics of fusion proteins in mice (MSD sandwich ELISA of serum)", "format": "in vivo, BALB/c female mice", "procedure": "Tencon25 is a protein scaffold based on a consensus sequence of a fibronectin type III (FN3) repeat protein having a sequence shown in residues 1-90 of SEQ ID NO: 39, and described in US2011/0274623A1. […] The resulting fusion protein has a polypeptide sequence shown in SEQ ID NO: 39. A poly-histidine tag was incorporated at the C-terminus for purification purposes. […] BALB/c female mice were split into 3 groups (N=3 group 1 non-treated control, and N=33 groups 2-3). Mice were treated with a single intravenous dose of the Tencon25-ABDCon fusion protein at 2 mg/kg. The dosing was based upon the weight of the animals on the day of administration. The mice were euthanized at the following time points after the injection: 10 min, 30 min, 1, 4, 6, hours, and 1, 2, 3, 7, 10, 14 days. Blood samples were taken from each animal via cardiac puncture. The blood samples were allowed to clot at room temperature for 30 minutes, but no longer than 1 hour. The blood samples were then centrifuged at approximately 3,500 rpm for 15 minutes. Serum samples were analyzed using a homogenous sandwich ELISA on the Mesoscale Discovery platform. Streptavidin-Gold plates (Mesoscale Discovery) were blocked for 1 hour with Superblock (TBS) Tween-20 (Thermo). Polyclonal anti-Tencon25 antibody was used for both capture (biotinylated) and detection (labeled with MSD Sulfo-Tag (Mesoscale Discovery)) at 0.625 μg/ml. The antigen and antibodies were added to the plates, which were incubated for 2 hours with vigorous shaking at RT. Plates were washed with TBS-T (Sigma) and MSD Read Buffer with Surfactant (Mesoscale Discovery) was added. The plates were read using the MSD Sector Imager 6000. Data was analyzed using GraphPad Prism. Previous studies have shown that a similar, unfused Tencon molecule is cleared from the bloodstream quickly with a serum half-life of approximately 20 minutes in mice.\nThese molecules were dosed into mice at 2 mg/kg as described above in previous studies and analyzed using identical methods as described for the Tencon25-ABDCon fusions."}},
  "data": [
    {"molecule": "ABDCon11: ABDCon mutant A37Y, SEQ ID NO: 34 (LKEAKEKAIEELKKAGITSDYYFDLINKAKTVEGVNYLKDEILKA; Non-natural albumin binding domain ABDCon11)", "values": [
      {"measurement": "solubility of the expressed mutant", "setting": "[1]", "result": "insoluble"}
    ]},
    {"molecule": "ABDCon12: ABDCon with TIDEWL added to the N-terminus, SEQ ID NO: 44 (TIDEWLLKEAKEKAIEELKKAGITSDYYFDLINKAKTVEGVNALKDEILKA; ABDCon12)", "values": [
      {"measurement": "melting temperature (thermal stability)", "setting": "[2]", "result": 90.9, "unit": "°C"},
      {"measurement": "increase of melting temperature compared to the original ABDcon molecule", "setting": "[2]; DSC in PBS", "result": 9.4, "unit": "°"},
      {"measurement": "stability (degradation) after incubation", "setting": "[3]", "result": "degradation is occurring exclusively in the polyhistidine tag and not in the ABDCon12 sequence"}
    ]},
    {"molecule": "ABDCon: non-natural albumin binding domain consensus, SEQ ID NO: 21: […] (LKEAKEKAIEELKKAGITSDYYFDLINKAKTVEGVNALKDEILKA; not fully specified)", "values": [
      {"measurement": "Kd", "setting": "human serum albumin", "result": 0.075, "unit": "nM"}
    ]},
    {"molecule": "Tencon25-ABDCon: fusion of ABDCon to the c-terminus of Tencon25 FN3 scaffold by a (G4S)2 linker, SEQ ID NO: 39 (protein, Fusion protein Tencon25-ABDcon) MLPAPKNLVVSEVTEDSARLSWTAPDAAFDSFLIQYQESEKVGEAIVLTVPGSERSYDLTGLKPGTEYTVSIYGVKGGHRSNPLSAIFTTGGGGSGGGGSLKEAKEKAIEELKKAGITSDYYFDLINKAKTVEGVNALKDEILKA", "values": [
      {"measurement": "AUC", "setting": "[4]; 2 mg/kg intravenously", "result": 2054.332, "unit": "µg·h/mL"},
      {"measurement": "Clearance", "setting": "[4]; 2 mg/kg intravenously", "result": 22.93, "unit": "mL/day/kg"},
      {"measurement": "T (½)", "setting": "[4]; 2 mg/kg intravenously", "result": 60.42, "unit": "h"},
      {"measurement": "Volume of Distribution", "setting": "[4]; 2 mg/kg intravenously", "result": 0.0832873, "unit": "L/kg"},
      {"measurement": "serum half-life", "setting": "[4]; single intravenous dose 2 mg/kg", "result": "over 60 hours"},
      {"measurement": "stability (degradation) after incubation", "setting": "[3]", "result": "degraded"}
    ]},
    {"molecule": "Tencon-ABDCon: FN3 domain-ABDCon fusion protein, SEQ ID NO: 41 (protein, Tencon-ABDCon fusion protein) MLPAPKNLVVSEVTEDSLRLSWTAPDAAFDSFLIQYQESEKVGEAINLTVPGSERSYDLTGLKPGTEYTVSIYGVKGGHRSNPLSAEFTTGGGGSGGGGSLKEAKEKAIEELKKAGITSDYYFDLINKAKTVEGVNALKDEILKA", "values": [
      {"measurement": "stability (degradation) after incubation", "setting": "[3]", "result": "degraded"}
    ]}
  ]
}
